“Also recorded” adds a separate entry of the source. Where two headings read alike, the source gives them in different places.
Columns and labels:
[1] = biological target: DDD of the RII form of PKA (Homo sapiens, UniProt P13861); conditions: Hundsrucker et al., 2006, cited from earlier work
[2] = tested on: RII isoform of PKA compared with the RI isoform; conditions: 2006, cited from earlier work; for isoform preference of peptide antagonists: Stokka et al.
[3] = tested on: subcutaneous Ramos Burkitt lymphoma tumors; assay: Therapeutic efficacy in mice bearing a human Burkitt lymphoma xenograft (Ramos); assay type: in vivo, NCr athymic nu/nu mice
Description: A humanized anti-human CD22 monoclonal antibody, hRFB4, was conjugated with SN-38 as described in U.S. Pat. Nos. 7,999,083 and 8,080,250 (the Examples section of each of which is incorporated herein by reference) at a drug to antibody ratio of 5.71. This antibody drug conjugate (ADC) was tested in mice bearing subcutaneous (s.c.) Ramos Burkitt lymphoma tumors. Efficacy was compared to another anti-CD22 SN-38-ADC, hLL2-SN-38.
To perform this study, 5 week-old female NCr athymic nu/nu mice were injected s.c. with Ramos cells that were harvested from tissue culture (1×10^7 cells per mouse). Once tumors reach approximately 0.2 cm^3 in size, they were divided up into treatment groups. Mice received 250 μg hRFB4-SN-38 i.p. twice weekly for two weeks. Likewise, mice received hLL2-SN-38 or a non-tumor targeting anti-CEACAM5 SN-38-ADC (hMN14-SN-38) at the same dose/schedule as the hRFB4-SN-38. Saline control mice received 100 μL i.p. injections twice weekly for two weeks. Tumors were measured and mice weighed twice weekly. Animals were euthanized for disease progression if their tumor volumes exceeded 1.0 cm^3 in size.

[4] = tested on: B cells gated from PBMCs of healthy donors; assay: Trogocytosis: surface antigen levels on B cells after overnight treatment of PBMCs, flow cytometry; assay type: cell-based, human
Description: Peripheral blood mononuclear cells (PBMCs) obtained from healthy donors were incubated overnight (16-24 h) with 10 μg/mL of either epratuzumab or an isotype control mAb (hMN-14) and the relative levels of various antigens on the surface of the B cells were analyzed by flow cytometry. PBMCs from heparinized whole blood of normal donors were isolated by density gradient centrifugation on UNI-SEP tubes (Novamed Ltd, Israel). PBMCs were reconstituted in RPMI media supplemented with 10% heat inactivated fetal bovine serum and plated at a cell density of 1.5×10^6/mL in non-tissue culture treated 48-well plates. […] Stained cells were analyzed by flow cytometry on a FACSCALIBUR® (BD Biosciences) using Flowjo (V7.6.5) software. Initially, the lymphocyte population was gated by side vs. forward scattering, and B cells were further gated from this population with the CD19 signal. The mean fluorescence intensity (MFI), obtained with fluorochrome-conjugated antibodies to various cell surface antigens, on the gated B cells was calculated following treatment with epratuzumab, hMN-14 or without antibody. PBMCs from 16 healthy donors were assessed in various experiments.

[5] = tested on: patients with SLE who have failed at least one previous therapy; assay: Combination therapy of SLE with hRFB4 and hLL2; assay type: in vivo, human; conditions: single antibody alone, same dosage and schedule
Description: Patients with SLE who have failed at least one previous therapy receive combination therapy with 160 mg each of hRFB4 and hLL2 (epratuzumab), administered s.c. in 2 injections weekly for four weeks. Control groups receive hRFB4 alone, hLL2 alone or irrelevant antibody (hMN-14) at the same dosage and schedule. […] All serum samples evaluated for anti-human antibodies (HAHA) are negative.

CD22 = biological target: T1, CD22 (Homo sapiens, UniProt P20273); assay: Binding affinity for CD22+ Daudi cells determined by ELISA (FIG. 2)
T1 construct: endogenous in cells; host or cells: Daudi (Burkitt lymphoma) cells
Description: FIG. 2. Comparative binding affinity for CD22+ Daudi cells of hLL2 IgG, hRFB4 IgG, chimeric RFB4 conjugated to AD2 peptide, and hMN-14 IgG, as determined by ELISA. The binding affinity of hRFB4 as determined for Daudi cells is about 10-fold higher than that of hLL2 and about 30% higher than the chimeric RFB4.
The hRFB4 antibody was prepared as described above, resulting in a humanized anti-CD22 antibody with variable region sequences as shown in FIG. 1A and FIG. 1B (SEQ ID NO:7 and SEQ ID NO:8). After expression, the binding affinity or CD22+ Daudi cells was compared to that of the hLL2 antibody, comprising the same FR and constant region sequences but different CDR sequences, and to the chimeric RFB4 antibody, comprising the same CDR sequences but different FR and constant region sequences.

[6] = tested on: patients with moderately active SLE; assay: Open-label study of hRFB4 in systemic lupus erythematosus; assay type: in vivo, human
Description: An open-label, single-center study of patients with moderately active SLE (total British Isles Lupus Assessment Group (BILAG) score 6 to 12) is conducted. Patients receive dosages of hRFB4 of 50, 100, 200, and 400 mg subcutaneously (SC) every week for 6 weeks. Evaluations include safety, SLE activity (BILAG), blood levels of B and T cells, human anti-RFB4 antibody (HAHA) titers, and levels of cell surface CD19, CD20, CD21, CD22 and CD79b on B cells. It is determined that a dosage of 50-100 mg per SC injection results in optimal depletion of B cell CD19, while producing less than 50% depletion of normal B cells. Subsequently, a subcutaneous dose of 100 mg hRFB4 is administered to a new group of patients with moderately active SLE.

[7] = tested on: patients with previously untreated or relapsed hairy cell leukemia; assay type: in vivo, human
Description: Patients with previously untreated or relapsed hairy cell leukemia receive 4 doses of 40, 80, 160 or 320 mg hRFB4 injected s.c. every week or every two weeks.

[8] = tested on: patients with primary Sjögren's syndrome; assay type: in vivo, human
Description: Patients with primary Sjögren's syndrome receive 8 doses of 20, 40, 80 or 160 mg hRFB4 injected s.c. every week or every two weeks.

Daudi cells = assay: Dose-response of trogocytosis of CD22 and CD19 from Daudi cells (FIG. 6A, 6B); assay type: cell-based, human
[9] = tested on: rheumatoid arthritis patients who have failed at least one TNFα inhibitor; assay type: in vivo, human
Description: Patients who have failed therapy with at least one TNFα inhibitor receive 4 doses of 40, 80, 160 or 320 mg hRFB4 injected s.c. every week or every two weeks. The antibody is either administered alone or in conjunction with oral methotrexate (10-25 mg/week).

Sequence of DDD of the RII form of PKA (P13861 whole entry, canonical isoform): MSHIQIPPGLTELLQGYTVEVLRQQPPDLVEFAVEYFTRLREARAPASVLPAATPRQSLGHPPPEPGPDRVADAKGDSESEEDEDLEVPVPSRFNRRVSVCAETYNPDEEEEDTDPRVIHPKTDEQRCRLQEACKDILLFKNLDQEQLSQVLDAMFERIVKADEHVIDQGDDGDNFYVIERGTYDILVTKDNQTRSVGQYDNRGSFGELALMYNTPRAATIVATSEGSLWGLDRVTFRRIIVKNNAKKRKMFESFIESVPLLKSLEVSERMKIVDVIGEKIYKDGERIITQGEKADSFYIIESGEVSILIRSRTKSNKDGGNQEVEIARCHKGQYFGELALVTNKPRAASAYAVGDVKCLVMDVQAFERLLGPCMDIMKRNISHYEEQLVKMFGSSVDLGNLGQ

PEDAELVRLSKRDVENAVLKAVQQY [AKAP7δ-L308D-pep]
affinity for the RII DDD sequence [1]: particularly high affinities

QIEYVAKQIVDYAIHQA [SuperAKAP-IS]
selectivity for the RII isoform of PKA compared with the RI isoform ([2]; Gold et al.): five order of magnitude higher selectivity

PEDAELVRTSKRLVENAVLKAVQQY [AKAP7δ-L304T-pep]
affinity for the RII DDD sequence [1]: particularly high affinities

hLL2-SN-38
survival compared with hMN14-SN-38 control group ([3]; 250 μg i.p. twice weekly for two weeks): no significant difference | mice tumor free when the study ended ([3]; day 87, 250 μg i.p. twice weekly for two weeks): 1 of 6 | survival compared with saline control ([3]; log-rank test, P=0.0012): significantly better than saline control

PEDAELVRLSKRLVENAVLKAVQQY [AKAP7δ-wt-pep]
affinity for the RII DDD sequence [1]: particularly high affinities

FEELAWKIAKMIWSDVFQQC [PV-38]
isoform preference of peptide antagonists [2]: higher affinity for RI

LEQYANQLADQIIKEATE [RIAD]
isoform preference of peptide antagonists [2]: higher affinity for RI

hMN14-SN-38: non-tumor targeting anti-CEACAM5 SN-38-ADC
median survival time (MST) ([3]; 250 μg i.p. twice weekly for two weeks, days post-therapy initiation, death = tumor exceeding 1.0 cm^3): 5 days

QIEYLAKQIVDNAIQQA [AKAP-IS]
Kd ([1]; Alto et al., 2003, read-out: binding constant for DDD): 0.4 nM | affinity for the RII DDD sequence [1]: particularly high affinities

DLIEEAASRIVDAVIEQVKAAGAY [Ht-31]
isoform preference of peptide antagonists [2]: greater affinity for the RII isoform of PKA

hMN-14: anti-CEACAM5 antibody used as isotype control [reference compound]
effect on levels of the tested surface proteins ([4]; isotype control mAb, 10 μg/mL, overnight): did not affect the levels of any of the tested proteins

B1: hRFB4: humanized anti-CD22 antibody with variable region sequences SEQ ID NO:7 and SEQ ID NO:8 (antibody, V domains shown)
VH: QVQLVQSGAEVKKPGSSVKVSCKASGFTFSIYDMSWVRQAPGQGLEWVAYISSGGGTTYYPDTVKGRFTITADESTNTAYMELSSLRSEDTAFYFCARHSGYGSSYGVLFAYWGQGTLVTVSS
VL: DIQLTQSPSSLSASVGDRVTISCRASQDISNYLNWYQQKPGKAPKLLIYYTSILHSGVPSRFSGSGSGTDYTFTISSLQPEDIATYYCQQGNTLPWTFGGGTKVQIKR
objective responses [5]: Objective responses are observed | Kd (CD22; CD22+ Daudi cells, FIG. 2): 0.2 nM | binding affinity, higher than the chimeric RFB4 (CD22; Daudi cells, versus chimeric RFB4 conjugated to AD2 peptide): about 30% | patients with BILAG decreases continuing to at least 18 weeks ([6]; 100 mg SC): 92% | decrease of total BILAG scores ([6]; 100 mg SC, all patients): at least 50% | depletion of normal B cells ([6]; 50-100 mg per SC injection, weekly for 6 weeks): less than 50% | immunogenicity ([6]; SLE patients): no evidence of immunogenicity | tolerability ([6]; SLE patients): well tolerated | patients with improvement in at least one BILAG B- or C-level disease activity ([6]; at 6, 10 and 18 weeks): 93% | average decrease of B-cell levels ([6]; at 18 weeks): 35% | patients with multiple BILAG B involvement at baseline who completely resolved all B-level disease activities ([6]; by 18 weeks): 3 patients | trogocytosis (MFI of CD22, CD19, CD21, CD79b on B cells) compared with hLL2 ([4]; overnight treatment of PBMCs, FIG. 4A-4D): more efficacious than the hLL2 antibody; also recorded: as capable of mediating trogocytosis as hLL2 | depletion of B cell surface levels of CD19, CD20, CD21, CD22 and CD79b ([7]; 40 mg): moderate level | depletion of B cell surface levels of CD19, CD20, CD21, CD22 and CD79b ([7]; 80 mg): much higher level | B-cell depletion ([7]; all dosage levels): Transient B-cell depletion | objective responses (mostly partial responses) ([7]; dose of 80 mg): 30% | human anti-hRFB4 antibody (HAHA) in serum samples ([7]; in vivo): negative | release pattern of s.c. antibody ([7]; in vivo, sc): slow release pattern over several days | optimum dosage ([7]; six months after treatment): 80 mg | median corticosteroid after treatment ([8]; 80 mg group, six months after treatment, decrease from 17.5 mg/day): 8.3 mg/day | B-cell depletion ([8]; all dosage levels): Transient B-cell depletion | human anti-hRFB4 antibody (HAHA) in serum samples ([8]; in vivo): negative | objective responses ([8]; s.c., all dose levels): observed at all dose levels | minimal concentration to induce the maximal level of trogocytosis of CD19 (Daudi cells; CD19 from Daudi cell, FIG. 6B): 1 ng/mL | minimal concentration to induce the maximal level of trogocytosis of CD22 (Daudi cells; CD22 from Daudi cell, FIG. 6A): 1 ng/mL | concentration inducing the maximal level of trogocytosis of CD19 and CD22 (Daudi cells; dose-response curve, FIG. 6A and 6B): 1 ng/mL | depletion of B cell surface levels of CD19, CD20, CD21, CD22 and CD79b ([9]; 80 mg): moderate level | depletion of B cell surface levels of CD19, CD20, CD21, CD22 and CD79b ([9]; 160 mg): much higher level | B-cell depletion ([9]; all dosage levels): Transient B-cell depletion | human anti-hRFB4 antibody (HAHA) in serum samples ([9]; in vivo): negative | release pattern of s.c. antibody ([9]; in vivo, sc): slow release pattern over several days | objective responses ([9]; s.c., all dose levels): observed at all dose levels | optimum dosage ([9]; six months after treatment): 160 mg
